Test results reported in patent US20170128524A1.

Target: c-Jun N-terminal Kinase (JNK)
Assay: cell-based or functional assay

## L-JNKi1 (peptide)
  phosphorylation of STX1a (S14) in synaptosomes, L-JNKi1 on its own: -45%
